For 1 substance, % inhibition of THP-1 cell binding to KIM127 results are on record in patent US20070207967A1, “Peptide Inhibitors of Matrix Metalloproteinase Activity” (CTT CANCER TARGETING TECHNOLOGIES OY, priority 2004, published 2007).

The assay concerns the target β2 integrin on THP-1 cells (human) (UniProt P05107). Kind of assay: THP-1 cell binding to immobilized KIM127 (competitor) with C domain 50 µg/ml.

β2 integrin on THP-1 cells (human), sequence (P05107 23-769): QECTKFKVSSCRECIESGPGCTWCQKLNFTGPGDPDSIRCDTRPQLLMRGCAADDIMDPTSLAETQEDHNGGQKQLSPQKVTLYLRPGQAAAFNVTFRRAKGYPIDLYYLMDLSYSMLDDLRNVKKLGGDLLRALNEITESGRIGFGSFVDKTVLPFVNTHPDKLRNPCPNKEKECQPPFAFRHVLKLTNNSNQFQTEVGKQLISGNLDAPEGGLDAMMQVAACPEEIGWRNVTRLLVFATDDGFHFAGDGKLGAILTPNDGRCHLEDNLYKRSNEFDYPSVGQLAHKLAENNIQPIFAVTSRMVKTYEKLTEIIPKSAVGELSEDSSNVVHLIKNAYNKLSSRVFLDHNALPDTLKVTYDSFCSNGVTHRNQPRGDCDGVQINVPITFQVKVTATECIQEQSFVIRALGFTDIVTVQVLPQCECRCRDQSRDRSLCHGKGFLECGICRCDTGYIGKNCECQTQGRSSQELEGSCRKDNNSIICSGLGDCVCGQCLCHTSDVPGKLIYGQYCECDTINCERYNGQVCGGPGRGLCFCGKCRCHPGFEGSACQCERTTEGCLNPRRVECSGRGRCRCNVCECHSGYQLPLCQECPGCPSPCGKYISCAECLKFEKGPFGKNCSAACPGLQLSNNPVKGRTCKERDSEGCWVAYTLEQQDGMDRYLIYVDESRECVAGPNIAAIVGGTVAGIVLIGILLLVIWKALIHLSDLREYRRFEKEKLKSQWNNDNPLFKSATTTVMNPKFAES

“recombinant MMP-9 C-terminal hemopexin-like domain (Asp494-Asp688) (from UniProt P14780 513-707)”: the % inhibition of THP-1 cell binding to KIM127 worked out at 40%.
